US12616760B2, “Synthetic cyclic peptide mimetics” (priority 2020, dated 2026)
Numbered stars: 1 amine (or outer) side, 2 acyl side, 3 side chain; on linkers, the order of the positions; unused ones are H or OH. Square brackets hold non-standard residues; d marks the D form. Peptide text beside a SMILES is read from it. * marks the point of attachment. NOTA = O=C(O)CN1CCN(CC(=O)O)CCN(CC(=O)*)CC1; azaPhe = O=C(N(Cc1ccccc1)N[*:1])[*:2]; Nle = CCCC[C@H](N)C(=O)O; azaGly = NNC(=O)O

What was measured:
Aβ40 = target: T1, Aβ40 (Homo sapiens, UniProt P05067); test: Thioflavin T (ThT) fluorescence assay of Aβ40 aggregation; format: biochemical; settings: ThT, 10 μM soluble Aβ40
T1 construct: The extent of Aβ40 aggregation in the presence of increasing concentrations of azacyclopeptides
T1 sequence (P05067 672-711 limits assumed): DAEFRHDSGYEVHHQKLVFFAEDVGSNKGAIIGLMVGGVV
Method: Amyloid generation can be identified and quantified using the thioflavin T (ThT) fluorescence dye assay. […] Agents that bind and inhibit aggregation of Aβ diminish ThT fluorescence relative to untreated Aβ. The extent of Aβ40 aggregation in the presence of increasing concentrations of azacyclopeptides and azasulfurylcyclopeptide 55 was evaluated by the ThT assay. Fluorescence of Aβ40 that was aged for 48 h was used as control, defined as 0% anti-amyloidogenic activity, and compared with fluorescence in the presence of cyclic peptide mimics at increasing concentrations to measure anti-amyloidogenic activity.

CL2006 C. elegans strain = test system: CL2006 C. elegans strain; set-up: species or system Caenorhabditis (C.) elegans; settings: in vivo
From the text: Compound 3 was used in two in vivo transgenic Caenorhabditis (C.) elegans models expressing human Aβ42. The CL2006 C. elegans strain produces constitutively a body-wall muscle-specific Aβ42, the aggregation of which causes age-dependent paralysis, motility dysfunction and consequently short lifespan. The CL2355 strain expresses a temperature-inducible pan-neuronal Aβ42, accumulation of which leads to deficits in chemotaxis, associative learning and thrashing in liquid. The CL2006 mutant and control CL802 wild type worms had respective lifespans of 13.6 and 15.6 days (P<0.005, FIG. 3A).

Aβ species = test: PET imaging of ^64Cu-conjugates in 5×FAD mice; format: in vivo; settings: for Aβ uptake (activity in the Aβ species) / Aβ uptake relative to ^64Cu-1-NOTA: 6-month old 5×FAD mice; for Aβ uptake (activity in the Aβ species): 20 h post-injection
Method: (§1) Images were taken 3 weeks apart on the same 5×FAD mouse for ^64Cu-conjugate 43 and ^11C-PIB (FIGS. 1B and C) using the 2-(4′-[^11C]methylaminophenyl)-6-hydroxybenzothiazole (^11C-PIB) compound. Use of ^11C-PIB is limited to 1 h due to short half-life (t1/2=20.4 min). […] In control 44 day-old WT mouse at 1-day post-injection of ^64Cu-conjugate 43, brain uptake is very low (FIG. 1D). Non-transgenic littermates (labeled as wild type (WT) controls in the text and FIG. 1D) were housed in the same manner as 5×FAD mice and used for comparison.
(§2) Amyloid plaque detection was evaluated in 4.5-7-month-old Tg [5×FAD] mice and age-matched wild-type controls using the ^11C-PIB compound. 5×FAD mice carry both mutant human APP(695) with the Swedish (K670N, M671L), Florida ([…]), and London (V717I) Familial Alzheimer's Disease (FAD) mutations and human PS1 harboring two FAD mutations, M146L and L286V. 5×FAD mice develop plaque formation beginning at 2 months and cognitive deficits at 4-6 months. […] Amyloid beta of ^64Cu-conjugate 40 in hippocampus at 1 h post injection (1.285±0.034% ID/g) was similar to that of ^11C-PIB (1.038±0.028% ID/g. FIG. 1) in the cortex.
(§3) Red and blue colours represent respectively highest and zero uptake. […] Different intensity scales were used for PET images. […] Images were taken 3 weeks apart on different mouse for ^64Cu-43 and ^11C-PIB. Co-registration of experimental image data with brain mask to mouse atlas space was achieved to identify volumes of interest. 1. Striatum; 2. Cortex; 3. Hippocampus; 4. Thalamus; 5. Cerebellum; 6. Basal forebrain septum; 7. Hypothalamus; 8. Amygdala; 9. Brain stem; 10. Central gray; 11. […] Olfactory bulb; 13. Midbrain; 14.

[1] = PET imaging and biodistribution, formulation tests in Balb/c mice; format: in vivo
Method: Different formulations were tested with the ^64Cu-1-NOTA conjugate to investigate the solubility of the PET tracer in vivo and select the best formulation for PET imaging studies. […] For further in vivo studies, 8% DMSO and 9% sucrose (for azaconjugates) were used.

[2] = PET imaging of ^64Cu-conjugates in 5×FAD mice; format: in vivo; settings: mouse, in vivo, total radioactivity
Method: as §1, §2, §3

Q: What does the source list for `CCCC[C@@H]1NC(=O)[C@@H](CC(C)C)NC(=O)[C@H](CCCCN)NC(=O)NNC(=O)[C@H](Cc2c[nH]cn2)NC(=O)[C@@H](Cc2c[nH]c3ccccc23)NC1=O` [Compound 3, c(D-Leu-L-Nle-D-Trp-L-His-Gly*-L-Lys)] (cyclo(K[dL][Nle][dW]H[azaGly]))?
A: Inhibition of amyloidogenic activity(%) (Aβ40; Aβ:peptide 1:1): 83.7%; Inhibition of amyloidogenic activity(%) (Aβ40; Aβ:peptide 1:5): 81.3%; Inhibition of amyloidogenic activity(%) (Aβ40; Aβ:peptide 1:10): 83.7%; toxicity and longevity (CL2006 C. elegans strain): no toxicity and no influence on wild type CL802 worm longevity

Q: Which “uptake in the cortex” value (Aβ species; 5×FAD mice, ^11C-PIB) does the source give for `[11CH3]Nc1ccc(-c2nc3ccc(O)cc3s2)cc1` [^11C-PIB, 2-(4′-[^11C]methylaminophenyl)-6-hydroxybenzothiazole, reference compound] here?
A: 1.038±0.028 % ID/g

Q: For `CCCC[C@@H]1NC(=O)[C@@H](CC(C)C)NC(=O)[C@H](CCCCNC(=O)CN2CCN(CC(=O)O)CCN(CC(=O)O)CC2)NC(=O)[C@@H](CO)NC(=O)[C@H](Cc2c[nH]cn2)NC(=O)[C@@H](Cc2c[nH]c3ccccc23)NC1=O` [^64Cu-1-NOTA, metal not drawn] (cyclo([dL][Nle][dW]H[dS]K(NOTA))), which “Aβ uptake (activity in the Aβ species)” value (Aβ species) is on record?
A: 0.430±0.010 % ID/g

Q: What about the organ uptake ([1]; Intra-lipid (20% IV fat-emulsion) formulations) of the same molecule?
A: lower uptake in the lungs and a higher uptake in the gastrointestinal tract and gallbladder

Q: And the organ uptake ([1]; formulated in 8% DMSO)?
A: High lung and liver uptake

Q: Which results are given for `CCCC[C@@H]1NC(=O)N(Cc2ccccc2)NC(=O)[C@H](CCCCNC(=O)CN2CCN(CC(=O)O)CCN(CC(=O)O)CC2)NC(=O)[C@@H](CO)NC(=O)[C@H](Cc2c[nH]cn2)NC(=O)[C@@H](Cc2c[nH]c3ccccc23)NC1=O` [^64Cu-conjugate 40, metal not drawn] (cyclo([azaPhe][Nle][dW]H[dS]K(NOTA)))?
A: tissue uptake ([2]; 5×FAD mice at 4.5 months, read-out: accumulation of activity in the Aβ species): 0.165 ± 0.005 %ID/g; tissue uptake at 1 h ([2]; 5×FAD mice, 1 h post injection, read-out: uptake in hippocampus): 1.28 ± 0.034 %ID/g; tissue uptake at 20 h ([2]; 6-month old 5×FAD mice, 20 h post-injection, read-out: Aβ uptake (activity in the Aβ species)): 2.1 ± 0.059 %ID/g; time of highest activity value in Aβ species (Aβ species; 5×FAD mice, post injection): 1 days; Aβ uptake relative to ^64Cu-1-NOTA (Aβ species): approximatively five times superior; Aβ uptake (activity in the Aβ species) (Aβ species): 2.102±0.059 % ID/g

Q: What does the source list for `CCCC[C@@H]1NC(=O)[C@@H](CC(C)C)NC(=O)[C@H](CCCCNC(=O)CN2CCN(CC(=O)O)CCN(CC(=O)O)CC2)NC(=O)NNC(=O)[C@H](Cc2c[nH]cn2)NC(=O)[C@@H](Cc2c[nH]c3ccccc23)NC1=O` [^64Cu-conjugate 43, metal not drawn] (cyclo([dL][Nle][dW]H[azaGly]K(NOTA)))?
A: Aβ uptake relative to ^64Cu-1-NOTA (Aβ species): approximatively five times superior; Aβ uptake (activity in the Aβ species) (Aβ species): 2.030±0.056 % ID/g; uptake into the thalamus (Aβ species; Tg female 5×FAD AD mice, 9% sucrose in saline, 1-day post-injection): increased with age from 44 to 72 days; brain uptake (Aβ species; control 44 day-old WT mouse, 1-day post-injection): very low
